The chains are these.
B1: 61 (protein, listed as Gordonia amarae)
chain: MATGAGSGVPSPADRVIVRSPGVIDVHAHAVLPMSLGCAGAAGPEIGYREDGSPFFRVGEYVLNGVRYEGSAFMDPEVRVAAMDAAGIGLQMISPNPITYFTRLDARSATDYARAHNDAIAEAAGRHPGRLVGAAQLPMQDVPAAIAELERSVRELGLVAAYIDTDIGDRTLDAPELDDFYSAAVELDVPVFIHPSPVGQEGPPDDTRLRRFDLDLLLGFSYDETLAVAALVFGGVLERHPALDVCLSHGGGTLAFVAGRFARAVAKPRAWVPEFLVENGIESYLRRLWLDTHVHSAGSLRLLIDTVGTDRLVFGTNFAGWDADGATEVDALGDLRETTTANAAHLLRLGRA
B2: 39 (protein, listed as Agrobacterium fabrum)
chain: MAQGKVALEEHFAIPETLQDSAGFVPGDCWTELQHRLLDIQDTRLKLMDAHGIETMILSLNAPAVQAIPDKTKAIEIARRANDALAEECAKRPDRFLAFAALPLQDPDAATQELRRCVNDLGFVGALVNGFSQEGDGQTPLYYDLPQYRPFWGEVEKLDVPFYLHPRNPLPQDSRIYDGHPWLLGPTWAFAQETAVHALRLMASGLFDEHPRLDIILGHMGEGLPYMMWRIDHRNAWVKLPPRYPAKRRFVDYFNENFHITTSGNFRTQTLIDAILEIGADRILFSTDWPFENIDHASDWFHATSIAEADRVKIGRTNARRLFKLDGR
B3: 60 (protein, listed as Catenulispora acidiphila)
chain: MARGFVRTAVVPGFWDAGWRGAGQPGGMRVDVHAHLFPAAYLDLLDDFRQDGGVGTREVRALGGGDGERELRLRLAAMDAVGVDVQLLSTCPQGPYTGDPTAAVEAARCANVALAQTVAQYPERLRALAALPLPHILASVDELNRAMEQDGMLGAAVGTSILGRPLSHPDFEPLFAALNRRKGVLFVHPIGESAGSPLMQASKLDRVIGYAAEVSTAILQLFQAGLTVKYPDIRIIAPHMGGYLPFLIQRLDRHRDWYLPKDAPSAGQLMRGIAYDTANPLPAALRLTAEVVGPERLLLGTDYPFEQGPSLRDHIEYILAAGLPEAQAKMIVDVNAADFLDMRSGAEQPPV
B4: 62 (protein)
chain: MAVGGKNFRDVTDQVWCPKKRIEDMDREGVDIQVLSPIPVTFSYWAKPEEAESMARIQNDFIAETVLAYPDRFVGLGTVPMQDGETAIREMERCITELNLHGIEIGTNVNGKNLDDPSFIEFFRMAEKWQVPIFIHPWETLGRDRMPHHNFMYTVGMPSETALAAATLIWSGIMEKFPRLKVCFAHGGGSFPYILPRLDQGWKVWPHLRLTTHPPSYYAKKFYFDSLNYDPINLKYMIERFGHEKIFMGSDYPFLLREVDPGKVIDETASLSEEQKAAMLGGNAAEFLNIDIKKRGVAYAESTNT
modifications: Bacillus thuringiensis serovar pulsiensis
B5: 64 (protein, listed as Achromobacter piechaudii)
chain: MAIQKIDMHAHFFPPITRQEAAALDPVNAPWLRPDADGATGQIMAGEREFRPVDATLWDPALRIEQMDRHGVDVQILCATPIMFGYTYPARPAADWAARMNDLALEHCAYAPSRLKALAQVPLQDLELACQEASRARAAGHLGVQIGNHVGPRDLDDETLVQFLIHCANNDIPVLVHPWDMMTDGRMKKWMLPWLVSMPAETQLGILSLILSGAFERIPRSLKLCFAHGGGSFAYLLGRVDNAWRHRDIIRQDCPQLPSSYTDRFYTDSAVFDPRSLRLLIDVMGEDRVLLGSDYPYPLGEQEVGRLVAHAELVPEVQQKILFRNTMTFFGLQPGLQPGLQS
B6: 45 (protein)
chain: MANDDLAEVIAAHPDRFAGFAALPMRDPQAAAVELQRAVGTHGFCGAMINGLIEGRFLDDPAFAPLLSTAADLGVPLYLHPSFPPPQVAEIYFGGLAPVLGDLLATAGWGWHAETALHVLRLVATGVFDRLPELWVIVGHMGEMIPFALARIDTVLSPVAQLRQPVAQYFQTNVWFTTSGYTTFPPLQCALSTVGIDRLIFSVDYPYTDNTSARALLDTAPISPVDREKLAHGTVEALLRV
modifications: Mycobacterium sp
B7: 59 (protein)
chain: MAPSVIDAHAHFLPGSLVTALRSRSDAPDIRTDSNGGESFGIYRTRMPYGRTYDALDVRLARMDELGVDRQILSLPGLFGIDSRPVSQALPLVRAFNDGVADLVRKHPDRFSGIAALPLADLDAAQEEYRRARGDLGLSGLILPGDTFVSVAAAERVRPLFELAATIGGLIFVHPGPLPDETGSAVDAPAPHTDSVVHRRVTVDIQNRMTEVMVTLALTDFLAPYPSVPVQVANLGGSLPFVIERMDHVYALRNPEAPPPSLSLRSLYVDAASLGPRAIALAAEVYGADRVLFGSDYPIFDDGRCLDAVRQTRLSPDARALIAGGNAARMLTQT
modifications: alpha proteobacterium
B8: 42 (protein)
chain: MAQGKIALEEHFAIPDTLQDSAGFVPGDYWKELSARLLDIHEQRLMQMDAYGIEKMILSLNAPAVQAIPDKAKALEISRRANDFLAEQCARNPDRFLGFAALPLQDPDAATAELQRCVKTLGFVGALVNGFSQEGDGVTPLYYDLPQYRGFWAEVEKLAVPFYLHPRNPLPQDSRIYAGHPWLMGPTWAFAQETAVHALRLVGSGLFDDHPALRIILGHMGEGLPYMMWRIDNRNAWVKVAPNYPAKRRIADYFNENFYITTSGNFRTQSLVDAMLEIGADRILFSTDWPFENIDHASDWFDTATISEADRLKIGRTNAATLFNLES
modifications: Agrobacterium radiobacter
B9: 40 (protein, listed as Rhodococcus jostii)
chain: MAQGKIALEEHFAIPETLNDSAGFVPGTYWDELQARLLDIQDVRLKLMDEHNIETMILSLNAPAVQAIPERERAIDIARRANDVLAEECAKRPDRFRGFAALPLQDPDAAAEELRRCVTELGFVGALVNGFSQSATVDGGSTPLYYDLPRYRPFWAEVERLDVPFYLHPRNPLNQDARIYEGHPWLLGPTWAFAQETAVHALRLMASGLFDEHPGLRIVLGHMGEGIPAMLWRIDHRNAWVDVPPAYPAKRRMVDYFTENFFVTTSGNFRTQTLIDLLLELGSERVMFSTDWPFENINHAAEWFDAASISEADRLKIGRTNAATLFKLDR
B10: 3 (protein, listed as Lactobacillus plantarum)
chain: MAKLITVEEHFESAAVTAAMRQAVGNAVLPAVSPALRQYMRDNLPSPAIMQDTQHERLAFMAQYGIDMQVLSYGNSSPQNLSPEQAVPLSQLANDELAKAVVAHPDRYAGLAVLPVGDPQAAVAELNRAVTTLGLRGVLLKGNYQNKFFDEPFFLPIFEAAAALDVPVYFHPSFIPQAVTSHYFESNQWSDVVTGILSSAGYGWHMDVGIQVIRMIASGIFDKLPGLKLISGHWGELVPLFLERLDDELTTYTDLQYPFSTYYRHNVYVTPSGILSAPQLQFMLAEMGADHLMYSIDYPYKQPETSGSFLDIADLTDEQRAQIAFGTATTLFKL

One data set can be described thus: 14C assay: 14CO2 capture from [14C]-carboxyl-labeled dicamba with IPTG-induced recombinant E. coli cells. Particulars: IPTG-induced recombinant E. coli cells; 14CO2 from [14C]-carboxyl-labeled dicamba.
Take B1: the “Dicamba Decarboxylase Activity” value is given as “No”.

With B2, the “Dicamba Decarboxylase Activity” value is reported as “No”.

Consider B3, for which the “Dicamba Decarboxylase Activity” value was “No”.

For the molecule B4, the “Dicamba Decarboxylase Activity” value is “No”.

As to B5, the “Dicamba Decarboxylase Activity” value is listed as “Low”.

Take B6: the “Dicamba Decarboxylase Activity” value was “No”.

With B7, the “Dicamba Decarboxylase Activity” value is reported as “No”.

Take B8: the “Dicamba Decarboxylase Activity” value was “Low”.

On to B9, for which the “Dicamba Decarboxylase Activity” value is listed as “Low”.

For B10, the “Dicamba Decarboxylase Activity” value is “Low”.

Still in this data set, the particulars now being: dicamba decarboxylation activity.
In the case of B1, the “Enzymatic Detection level” value is “No”.

In the case of B2, the “Enzymatic Detection level” value is reported as “No”.

Turning to B3, the “Enzymatic Detection level” value was “No”.

With B4, the “Enzymatic Detection level” value is “No”.

In the case of B5, the “Enzymatic Detection level” value is recorded as “Low”.

As for B6, the “Enzymatic Detection level” value is recorded as “No”.

Take B7: the “Enzymatic Detection level” value was “No”.

On to B8, for which the “Enzymatic Detection level” value was “Low”.

In the case of B9, the “Enzymatic Detection level” value is on record as “Low”.

With B10, the “Enzymatic Detection level” value was “Low”.
